Data set [1] concerns the target T1, LANA-C (C-terminus of LANA) (Kaposi's sarcoma-associated herpesvirus …, UniProt Q9QR71 918-1129). Nature of the data set: EMSA; 4 mM Mg2+, poly(dI-dC); EMSA: 20 mM Tris/HCl pH 7.4, 100 mM NaCl, 4 mM MgCl2, 0.25 mM EDTA, 1 mM DTT, 0.5 ug poly(dI-dC), 10% glycerol, 100 ng labeled oligo, 0-400 ng LANA-C, 20 min at room temperature; 6.5% native PAGE on ice. As to conditions: protein: recombinant, tags: His, chain copies: 2, annealed sense and antisense oligos. On the technique in general: In EMSA bound probe runs differently from free probe, usually more slowly.

The target of data set [2] is T1, LANA-C (C-terminus of LANA). The data set can be described thus: EMSA; 4 mM Mg2+, poly(dI-dC); affinity similar to LBS1; EMSA: 20 mM Tris/HCl pH 7.4, 100 mM NaCl, 4 mM MgCl2, 0.25 mM EDTA, 1 mM DTT, 0.5 ug poly(dI-dC), 10% glycerol, 100 ng labeled oligo, 0-400 ng LANA-C, 20 min at room temperature; 6.5% native PAGE on ice. Conditions: protein: recombinant; tags: His; chain copies: 2; annealed sense and antisense oligos.

T1 sequence (Q9QR71 918-1129): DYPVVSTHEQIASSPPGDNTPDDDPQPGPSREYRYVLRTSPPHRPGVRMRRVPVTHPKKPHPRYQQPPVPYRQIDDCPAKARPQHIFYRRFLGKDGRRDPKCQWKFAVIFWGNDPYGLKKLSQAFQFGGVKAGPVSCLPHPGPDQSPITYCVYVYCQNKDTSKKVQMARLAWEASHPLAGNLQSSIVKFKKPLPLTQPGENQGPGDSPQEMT

B1: mLBS-like (scrambled LBS-like) (dsDNA)
DNA 1: TCCCCACCGGCTCCGCGCGTGGAGCCAGCTGCCAG
DNA 2: CTGGCAGCTGGCTCCACGCGCGGAGCCGGTGGGGA
B1: the binding result in data set [1] is reported as “no binding”.

B2: LBS (37 bp, TR DNA LBS1) (dsDNA)
DNA 1: GCGGAATTCGGCCCCATGCCCGGGCGGGAGGCGGGAT
DNA 2: ATCCCGCCTCCCGCCCGGGCATGGGGCCGAATTCCGC
For B2, the binding result in data set [1] (label: 5'-biotin) is on record as “binds”.

B3: LBS-like (IL-22R1 promoter -69 to -34) (dsDNA)
DNA 1: TCCCCGCCCCATGCCCGGGTGGAGCCAGCTGCCAG
DNA 2: CTGGCAGCTGGCTCCACCCGGGCATGGGGCGGGGA
On to B3, for which the binding result in data set [2] is listed as “binds”.

The record behind these values is PMC3081348, “Kaposi's Sarcoma-Associated Herpesvirus-Encoded LANA Down-Regulates IL-22R1 Expression through a Cis-Acting Element within the Promoter Region”.
